Bridge positions count the residues as written; N and C are the ends.
Legend:
[1] = molecular target: human eIF4E1a protein (human) (UniProt P06730); assay: differential scanning fluorimetry (thermal shift); non-reducing: 50 mM HEPES-KOH pH 7.2, 100 mM KCl, no TCEP; 5 µM eIF4E1a with 0-50 µM h4E-T(1-68) variant incubated without TCEP (up to 48 h, 4 or 20 °C), or SEC-purified dimers at 1:1; SYPRO Orange; shift of the Tm of eIF4E1a
[2] = molecular target: human 4E-T(1-68) wild type, monomer SH (both cysteines reduced) (human) (UniProt Q9NRA8); assay: SEC; non-reducing: monomer fractions incubated 24 h at 20 °C in TCEP-free 50 mM HEPES-KOH pH 7.2 with KCl, Enrich SEC70 column, 20 °C; dimers are held by intermolecular disulphide bonds
human eIF4E1a protein [3] = molecular target: T1, human eIF4E1a protein (human, UniProt P06730 1-217); assay: differential scanning fluorimetry (thermal shift); non-reducing: 50 mM HEPES-KOH pH 7.2, 100 mM KCl, no TCEP; 5 µM eIF4E1a with 0-50 µM h4E-T(1-68) variant incubated without TCEP (up to 48 h, 4 or 20 °C), or SEC-purified dimers at 1:1; SYPRO Orange; shift of the Tm of eIF4E1a; settings: both partners purified
T1 construct: human eukaryotic translation initiation factor 4E, isoform called eIF4E1a; Extinction coefficient used: 52,940 M^-1 cm^-1; also called heIF4E1a; eukaryotic initiation factor 4E
T1 sequence (P06730 whole entry, canonical isoform): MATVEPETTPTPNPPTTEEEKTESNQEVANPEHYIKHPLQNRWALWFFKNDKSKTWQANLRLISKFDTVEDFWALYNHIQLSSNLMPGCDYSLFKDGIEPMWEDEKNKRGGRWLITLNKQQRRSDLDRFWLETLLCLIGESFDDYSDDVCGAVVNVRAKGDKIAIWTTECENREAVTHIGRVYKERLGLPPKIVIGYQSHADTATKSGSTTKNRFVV

human eIF4E1a protein [4] = molecular target: T1, human eIF4E1a protein; assay: ITC; non-reducing: 50 mM HEPES-KOH pH 7.2, 100 mM KCl, no TCEP, 20 °C; 20 µM eIF4E1a in the cell titrated with 200 µM h4E-T(1-68) WT; one-site model; settings: both partners purified
human eIF4E1a protein [5] = molecular target: T1, human eIF4E1a protein; assay: differential scanning fluorimetry (thermal shift); non-reducing: 50 mM HEPES-KOH pH 7.2, 100 mM KCl, no TCEP; 5 µM eIF4E1a with 0-50 µM h4E-T(1-68) variant incubated without TCEP (up to 48 h, 4 or 20 °C), or SEC-purified dimers at 1:1; SYPRO Orange; shift of the Tm of eIF4E1a; settings: both partners purified; remark: listed apart in the source
human eIF4E1a protein [6] = molecular target: T2, human eIF4E1a protein (human, UniProt P06730 1-217); assay: ITC; eIF4E1a (5 or 10 uM) in the cell, titrated with a ten-fold concentrated h4E-T(1-68) variant; 20 °C; 50 mM HEPES-KOH pH 7.2, 100 mM KCl, with 1 mM TCEP (reducing); one-site model; settings: both partners purified
T2 construct: eukaryotic translation initiation factor 4E, isoform 1a (eIF4E1a), human; Extinction coefficient used: 52,940 M^-1 cm^-1; also called heIF4E1a; eukaryotic initiation factor 4E
T2 sequence (P06730 whole entry, canonical isoform): as above

human eIF4E1a protein [7] = molecular target: T1, human eIF4E1a protein; assay: differential scanning fluorimetry (thermal shift); reducing: 50 mM HEPES-KOH pH 7.2, 100 mM KCl, 1 mM TCEP; 5 µM eIF4E1a with 0-50 µM h4E-T(1-68) variant; SYPRO Orange; shift of the Tm of eIF4E1a; settings: both partners purified
human eIF4E1a protein [8] = molecular target: T1, human eIF4E1a protein; assay: as above; settings: both partners purified; remark: listed apart in the source
human eIF4E1a protein [9] = molecular target: T1, human eIF4E1a protein; assay: ITC; reducing: 50 mM HEPES-KOH pH 7.2, 100 mM KCl, 1 mM TCEP, 20 °C; 5 or 10 µM eIF4E1a in the cell titrated with ten-fold concentrated h4E-T(1-68) variant; one-site model; settings: both partners purified
human eIF4E1a protein [10] = molecular target: T2, human eIF4E1a protein; assay: ITC; eIF4E1a in the cell, titrated with a ten-fold concentrated h4E-T(1-68) variant (for WT: 20 uM eIF4E1a, 200 uM h4E-T); 20 °C; 50 mM HEPES-KOH pH 7.2, 100 mM KCl, without TCEP (non-reducing); one-site model; settings: both partners purified
[11] = molecular target: the molecule itself; assay: SEC; non-reducing: monomer fractions incubated 24 h at 20 °C in TCEP-free 50 mM HEPES-KOH pH 7.2 with KCl, Enrich SEC70 column, 20 °C; dimers are held by intermolecular disulphide bonds

human eIF4E1a protein (human), sequence (P06730 whole entry): as the sequence (P06730 whole entry, canonical isoform) above

dimeric form of human 4E-T(1-68) C50A (intermolecular disulphide bond) (from UniProt Q9NRA8 1-68) (complex)
fold lower ΔTm than the corresponding monomer [1]: 2 fold | ΔTm lower than that of the monomer-dimer mixture [1]: 2.5 °C | ΔΔTm against the monomer SS of WT h4E-T(1-68), 1:1 mixture [1]: 7 °C

human 4E-T(1-68) wild type, monomer SH (both cysteines reduced) (from UniProt Q9NRA8 1-68) (domain or fragment)
percent in the dimeric form [2]: 10% | stoichiometry N [2]: 2

dimeric form of human 4E-T(1-68) C26A (intermolecular disulphide bond) (from UniProt Q9NRA8 1-68) (complex)
fold lower ΔTm than the corresponding monomer [1]: 2 fold | ΔTm lower than that of the monomer-dimer mixture [1]: 2.5 °C | ΔΔTm against the monomer SS of WT h4E-T(1-68), 1:1 mixture [1]: 5.5 °C

B1: human 4E-T(1-68) wild type with the intramolecular disulphide bond Cys26-Cys50 (monomer SS) (domain or fragment, UniProt Q9NRA8 1-68, looked up)
chain: MDRRSMGETESGDAFLDLKKPPASKCPHRYTKEELLDIKELPHSKQRPSCLSEKYDSDGVWDPEKWHA
modifications: disulfide 26-50
notes: human 4E-Transporter (4E-T), N-terminal fragment, residues 1-68; Same construct as m2, oxidised; The samples without TCEP may still hold some monomer SH and a small fraction of dimer; also called h4E-T(1-68) WT under non-reducing conditions; disulphide loop form
Tm of eIF4E in the 1:1 mixture (melting peak after 3 h at 20 °C without TCEP) (human eIF4E1a protein [3]): 41.5 ± 0.5 °C | Kd (human eIF4E1a protein [4]): 800 ± 96 nM | ΔTm of eIF4E at eIF4E:h4E-T(1-68) 1:1 (human eIF4E1a protein [5]): 1 ± 0.5 °C | ΔTm of eIF4E at eIF4E:h4E-T(1-68) 1:10 (human eIF4E1a protein [5]): 9.5 ± 0.5 °C

B2: human 4E-T(1-68) wild type, reduced (monomer SH) (domain or fragment, UniProt Q9NRA8 1-68, looked up)
chain: MDRRSMGETESGDAFLDLKKPPASKCPHRYTKEELLDIKELPHSKQRPSCLSEKYDSDGVWDPEKWHA
notes: 4E-Transporter (4E-T), human, residues 1-68; The His6-tag is cleavable by thrombin, but no cleavage is described; Kept in 1 mM TCEP, with both cysteines reduced; also called h4E-T(1-68) WT; h4ET(1-68)
Ka (human eIF4E1a protein [6]): 3.73e+08 ± 6.8e+07 M⁻¹

B3: human 4E-T(1-68) wild type, monomer SH (both cysteines reduced) (domain or fragment, UniProt Q9NRA8 1-68, looked up)
chain: MDRRSMGETESGDAFLDLKKPPASKCPHRYTKEELLDIKELPHSKQRPSCLSEKYDSDGVWDPEKWHA
notes: pET28a construct, His6-tag cleavable by thrombin; also called h4E-T(1-68) WT; h4ET(1-68)
Tm of eIF4E in the 1:1 mixture (melting peak after 3 h at 20 °C without TCEP) (human eIF4E1a protein [3]): 51.5 ± 0.5 °C | ΔTm of eIF4E at eIF4E:h4E-T(1-68) 1:1 (human eIF4E1a protein [7]): 12 ± 0.5 °C | ΔTm of eIF4E at eIF4E:h4E-T(1-68) 1:10 (human eIF4E1a protein [7]): 15.5 ± 0.5 °C | Tm of eIF4E in the 1:1 mixture (zero time) (human eIF4E1a protein [8]): 52.5 ± 0.5 °C | Kd (human eIF4E1a protein [9]): 2.7 ± 0.5 nM

B4: human 4E-T(1-68) wild type under non-reducing conditions (monomer SS, intramolecular disulphide bond) (domain or fragment, UniProt Q9NRA8 1-68, looked up)
chain: MDRRSMGETESGDAFLDLKKPPASKCPHRYTKEELLDIKELPHSKQRPSCLSEKYDSDGVWDPEKWHA
modifications: disulfide 26-50
notes: 4E-Transporter (4E-T), human, residues 1-68; Same construct as Wm2, in TCEP-free buffer; also called h4E-T(1-68) WT without TCEP; disulphide loop form
Ka (human eIF4E1a protein [10]): 1.25e+06 ± 150000 M⁻¹

B5: human 4E-T(1-68) C26AC50A (domain or fragment, UniProt Q9NRA8 1-68, looked up)
chain: MDRRSMGETESGDAFLDLKKPPASKAPHRYTKEELLDIKELPHSKQRPSALSEKYDSDGVWDPEKWHA
notes: 4E-Transporter (4E-T), human, residues 1-68, with C26A and C50A; This mutant cannot form any disulphide bond; also called h4E-T(1-68)C26AC50A; double cysteine mutant
Ka (human eIF4E1a protein [10]): 3.27e+08 ± 2.2e+07 M⁻¹

B6: human 4E-T(1-68) C26AC50A (domain or fragment, UniProt Q9NRA8 1-68, looked up)
chain: MDRRSMGETESGDAFLDLKKPPASKAPHRYTKEELLDIKELPHSKQRPSALSEKYDSDGVWDPEKWHA
notes: human 4E-Transporter (4E-T), N-terminal fragment, residues 1-68; also called double cysteine mutant
Kd (human eIF4E1a protein [9]): 3.1 ± 0.2 nM | ΔTm of eIF4E at eIF4E:h4E-T(1-68) 1:1 (human eIF4E1a protein [5]): 10.5 ± 0.5 °C | ΔTm of eIF4E at eIF4E:h4E-T(1-68) 1:10 (human eIF4E1a protein [5]): 14.5 ± 0.5 °C

B7: human 4E-T(1-68) C50A (domain or fragment, UniProt Q9NRA8 1-68, looked up)
chain: MDRRSMGETESGDAFLDLKKPPASKCPHRYTKEELLDIKELPHSKQRPSALSEKYDSDGVWDPEKWHA
notes: human 4E-Transporter (4E-T), N-terminal fragment, residues 1-68; Without TCEP the samples are a mixture of monomer and disulphide-linked dimer; also called C50A mutant
ΔTm of eIF4E at eIF4E:h4E-T(1-68) 1:1 (human eIF4E1a protein [7]): 11.5 ± 0.5 °C | ΔTm of eIF4E at eIF4E:h4E-T(1-68) 1:10 (human eIF4E1a protein [7]): 15.5 ± 0.5 °C | ΔTm of eIF4E at eIF4E:h4E-T(1-68) 1:1 (human eIF4E1a protein [8]): 12 ± 0.5 °C | stoichiometry N [11]: 2 | ΔTm of eIF4E at eIF4E:h4E-T(1-68) 1:1 (human eIF4E1a protein [5]): 10.5 ± 0.5 °C | ΔTm of eIF4E at eIF4E:h4E-T(1-68) 1:10 (human eIF4E1a protein [5]): 14.5 ± 0.5 °C

B8: human 4E-T(1-68) C26A (domain or fragment, UniProt Q9NRA8 1-68, looked up)
chain: MDRRSMGETESGDAFLDLKKPPASKAPHRYTKEELLDIKELPHSKQRPSCLSEKYDSDGVWDPEKWHA
notes: 4E-Transporter (4E-T), human, residues 1-68, with C26A; also called h4E-T(1-68)C26A; C26A mutant
Ka (human eIF4E1a protein [6]): 6.64e+08 ± 8.4e+07 M⁻¹ | Ka (human eIF4E1a protein [10]): ~1e+08 M⁻¹

B9: human 4E-T(1-68) C26A (domain or fragment, UniProt Q9NRA8 1-68, looked up)
chain: MDRRSMGETESGDAFLDLKKPPASKAPHRYTKEELLDIKELPHSKQRPSCLSEKYDSDGVWDPEKWHA
notes: human 4E-Transporter (4E-T), N-terminal fragment, residues 1-68; Without TCEP the samples are a mixture of monomer and disulphide-linked dimer; also called C26A mutant; C26 mutant
ΔTm of eIF4E at eIF4E:h4E-T(1-68) 1:1 (human eIF4E1a protein [7]): 12 ± 0.5 °C | ΔTm of eIF4E at eIF4E:h4E-T(1-68) 1:10 (human eIF4E1a protein [7]): 15.5 ± 0.5 °C | stoichiometry N [11]: 2 | Kd (human eIF4E1a protein [9]): 1.5 ± 0.5 nM | ΔTm of eIF4E at eIF4E:h4E-T(1-68) 1:1 (human eIF4E1a protein [5]): 9 ± 0.5 °C | ΔTm of eIF4E at eIF4E:h4E-T(1-68) 1:10 (human eIF4E1a protein [5]): 12.5 ± 0.5 °C

Source: paper PMC10618305, “An intramolecular disulphide bond in human 4E-T affects its binding to eIF4E1a protein” (European Biophysics Journal, 2023)
